Laboratory results from PMC9253516 (2022).

Target: Survivin full length (UniProt O15392 1-142)
Assay: ITC

Survivin full length, sequence (O15392 whole entry): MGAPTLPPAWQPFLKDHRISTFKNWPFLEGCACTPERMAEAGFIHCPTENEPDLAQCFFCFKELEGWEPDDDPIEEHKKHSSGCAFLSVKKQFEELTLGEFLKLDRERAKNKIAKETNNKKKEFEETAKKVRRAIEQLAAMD

With AKER [Sgo1_(AKER) peptide] the Kd was 11.6 µM.
